The target of the experiment is PP1C in 3T3-L1 adipocyte lysates (mouse (endogenous in 3T3-L1 adipocytes)). Briefly: GST-PTG added to 3T3-L1 adipocyte lysates, fractionation, PP1 activity in the glycogen pellet.

GST-PTG fusion protein returned a fold increase in the PP1 activity sedimenting with the glycogen pellet of 8 fold.
